Sequences and labels used below:
B1: recombinant human His-tag-PRMT2 protein (protein arginine N-methyltransferase 2) (enzyme, UniProt P55345-1 1-433, looked up)
chain: MATSGDCPRSESQGEEPAECSEAGLLQEGVQPEEFVAIADYAATDETQLSFLRGEKILILRQTTADWWWGERAGCCGYIPANHVGKHVDEYDPEDTWQDEEYFGSYGTLKLHLEMLADQPRTTKYHSVILQNKESLTDKVILDVGCGTGIISLFCAHYARPRAVYAVEASEMAQHTGQLVLQNGFADIITVYQQKVEDVVLPEKVDVLVSEWMGTCLLFEFMIESILYARDAWLKEDGVIWPTMAALHLVPCSADKDYRSKVLFWDNAYEFNLSALKSLAVKEFFSKPKYNHILKPEDCLSEPCTILQLDMRTVQISDLETLRGELRFDIRKAGTLHGFTAWFSVHFQSLQEGQPPQVLSTGPFHPTTHWKQTLFMMDDPVPVHTGDVVTGSVVLQRNPVWRRHMSVALSWAVTSRQDPTSQKVGEKVFPIWR

In assay [1] the target is T1, GST-ER-α66 fusion protein (UniProt P03372 1-595).
T1 sequence (looked up): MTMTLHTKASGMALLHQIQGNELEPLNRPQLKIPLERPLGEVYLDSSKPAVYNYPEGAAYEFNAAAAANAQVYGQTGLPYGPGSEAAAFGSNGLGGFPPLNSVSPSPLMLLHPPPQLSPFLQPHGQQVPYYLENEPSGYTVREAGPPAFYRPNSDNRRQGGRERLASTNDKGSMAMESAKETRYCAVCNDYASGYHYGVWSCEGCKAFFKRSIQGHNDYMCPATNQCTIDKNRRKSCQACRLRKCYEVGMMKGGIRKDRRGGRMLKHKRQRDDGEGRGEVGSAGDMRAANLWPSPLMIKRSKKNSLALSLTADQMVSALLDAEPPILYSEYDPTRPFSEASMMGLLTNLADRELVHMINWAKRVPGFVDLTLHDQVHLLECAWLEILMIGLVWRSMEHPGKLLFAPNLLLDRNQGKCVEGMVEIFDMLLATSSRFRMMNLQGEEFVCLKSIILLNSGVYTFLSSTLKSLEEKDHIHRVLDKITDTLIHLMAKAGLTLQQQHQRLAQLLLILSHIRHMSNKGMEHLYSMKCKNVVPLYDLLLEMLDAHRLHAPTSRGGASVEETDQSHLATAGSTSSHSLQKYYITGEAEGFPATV
Kind of assay: pull-down.

The target in assay [2] is B1. Kind of assay: pull-down.

Consider B1, for which the binding result in assay [1] is reported as “binds”.

B2: GST-ER-α36 fusion protein (receptor, UniProt P03372-4 1-310, looked up)
chain: MAMESAKETRYCAVCNDYASGYHYGVWSCEGCKAFFKRSIQGHNDYMCPATNQCTIDKNRRKSCQACRLRKCYEVGMMKGGIRKDRRGGRMLKHKRQRDDGEGRGEVGSAGDMRAANLWPSPLMIKRSKKNSLALSLTADQMVSALLDAEPPILYSEYDPTRPFSEASMMGLLTNLADRELVHMINWAKRVPGFVDLTLHDQVHLLECAWLEILMIGLVWRSMEHPGKLLFAPNLLLDRNQGKCVEGMVEIFDMLLATSSRFRMMNLQGEEFVCLKSIILLNSGISHVEAKKRILNLHPKIFGNKWFPRV
In the case of B2, the binding result in assay [2] is “binds”.

(Values after article PMC5983932 (Oncology Reports, 2018).)
